Target: the molecule itself
Assay: AUC

B1: Y29W mutant of C.Esp1396I (natural protein)
chain: MESFLLSKVSFVIKKIRLEKGMTQEDLAWKSNLDRTYISGIERNSRNLTIKSLELIMKGLEVSDVVFFEMLIKEILKHD
- stoichiometry N: 2

Source: publication PMC3488213 (Nucleic Acids Research, 2012)
